Assays:
[1] = target: human CD33, full-length (CD33M) (human) (UniProt P20138); assay: cell-based or functional assay
[2] = target: CD33 variant having the fragment encoded by exon 2 deleted (CD33ex2) (human) (UniProt P20138); assay: cell-based or functional assay

B1: gemtuzumab ozogamicin (antibody, INN chains, looked up, V domains shown)
VH: EVQLVQSGAEVKKPGSSVKVSCKASGYTITDSNIHWVRQAPGQSLEWIGYIYPYNGGTDYNQKFKNRATLTVDNPTNTAYMELSSLRSEDTAFYYCVNGNPWLAYWGQGTLVTVSS
VL: DIQLTQSPSTLSASVGDRVTITCRASESLDNYGIRFLTWFQQKPGKAPKLLMYAASNQGSGVPSRFSGSGSGTEFTLTISSLQPDDFATYYCQQTKEVPWSFGQGTKVEVKR
modifications: ozogamicin (calicheamicin) conjugate
With B1 as the binder, how does the IC50 of GO cytotoxicity (viable cell number, Celltiter Glo, 72 h), HL-60 cells [1] read?
The IC50 of GO cytotoxicity (viable cell number, Celltiter Glo, 72 h), HL-60 cells was 0.0355 µg/mL.

And the IC50 of GO cytotoxicity (viable cell number, Celltiter Glo, 72 h), THP-1 cells [1]?
Its IC50 of GO cytotoxicity (viable cell number, Celltiter Glo, 72 h), THP-1 cells is 0.0163 µg/mL.

What about the IC50 of GO cytotoxicity, wild-type HSPC [1] of the same binder?
The IC50 of GO cytotoxicity, wild-type HSPC was 0.0934 µg/mL.

And the IC50 of GO cytotoxicity, HSPC CD33ex2 [2]?
Its IC50 of GO cytotoxicity, HSPC CD33ex2 is 0.246 µg/mL.

— patent publication US11389485
